Results: paper PMC6171183 (2018)

Biological target: T1, GST-LjBAK1cyt (Lotus japonicus, UniProt A0A2H4NR37)
T1 chain: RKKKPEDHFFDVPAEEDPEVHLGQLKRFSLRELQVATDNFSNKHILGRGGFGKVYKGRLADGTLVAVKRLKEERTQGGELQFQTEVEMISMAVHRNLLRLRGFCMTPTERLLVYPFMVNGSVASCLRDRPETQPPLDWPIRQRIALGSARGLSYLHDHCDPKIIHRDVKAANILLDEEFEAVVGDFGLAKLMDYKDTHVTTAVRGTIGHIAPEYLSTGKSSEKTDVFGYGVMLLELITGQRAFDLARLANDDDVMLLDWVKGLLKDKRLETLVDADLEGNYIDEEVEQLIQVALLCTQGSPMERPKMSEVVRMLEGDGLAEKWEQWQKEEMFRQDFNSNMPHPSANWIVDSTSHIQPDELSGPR
Assay: GST pull-down

B1: HIS-NFR5cyt (protein)
chain: RRKKALNRTASSAETADKLLSGVSGYVSKPNVYEIDEIMEATKDFSDECKVGESVYKANIEGRVVAVKKIKEGGANEELKILQKVNHGNLVKLMGVSSGYDGNCFLVYEYAENGSLAEWLFSKSSGTPNSLTWSQRISIAVDVAVGLQYMHEHTYPRIIHRDITTSNILLDSNFKAKIANFAMARTSTNPMMPKIDVFAFGVLLIELLTGRKAMTTKENGEVVMLWKDMWEIFDIEENREERIRKWMDPNLESFYHIDNALSLASLAVNCTADKSLSRPSMAEIVLSLSFLTQQSSNPTLERSLTSSGLDVEDDAHIVTSITAR
B1: binds.
